Test results: publication PMC8526985, “Characterization of the transactivation and nuclear localization functions of Pichia pastoris zinc finger transcription factor Mxr1p”
Changes are numbered by the printed parent chain.

T1: Mxr1pN150 (Pichia pastoris (Komagataella phaffii), UniProt C4R818 1-150)
T1 sequence: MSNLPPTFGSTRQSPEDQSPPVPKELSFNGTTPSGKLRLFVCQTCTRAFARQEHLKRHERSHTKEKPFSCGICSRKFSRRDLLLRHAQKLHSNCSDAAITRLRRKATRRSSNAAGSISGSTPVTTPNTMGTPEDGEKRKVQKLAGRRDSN

B1: ALD6-1 promoter MXRE2 (dsDNA)
DNA 1: CCGCACCCCCGAATTTTCACAAATTACCCCACACCCTATA
DNA 2: TATAGGGTGTGGGGTAATTTGTGAAAATTCGGGGGTGCGG
B2: MXRE2-M (dsDNA)
DNA 1: B1 DNA 1 with C30A
DNA 2: B1 DNA 2 with G11T
B3: ALD6-1 promoter MXRE1 (dsDNA)
DNA 1: CCGCTCAACGGTTCTCCTCTACATCGTCCCTCTTTTGGAG
DNA 2: CTCCAAAAGAGGGACGATGTAGAGGAGAACCGTTGAGCGG
B4: MXRE1-M (dsDNA)
DNA 1: B3 DNA 1 with C17A
DNA 2: B3 DNA 2 with G24T
B5: ALD6-1 promoter MXRE3 (dsDNA)
DNA 1: ACCCTATACTCCACCACTATGAGGGTTATTAGAACTGATC
DNA 2: GATCAGTTCTAATAACCCTCATAGTGGTGGAGTATAGGGT
B6: MXRE3-M (dsDNA)
DNA 1: B5 DNA 1 with C12A
DNA 2: B5 DNA 2 with G29T

Target: T1, Mxr1pN150
Experiment: EMSA; EMSA conditions not given in the material
Settings: protein: recombinant; (radiolabeled)

| Binder | binding result |
| --- | --- |
| B1 | binds |
| B2 | no binding |
| B3 | binds |
| B4 | no binding |
| B5 | binds |
| B6 | no binding |
